Results reported in US20050090447A1, “Peptides that promote complement activation” (Baxter International Inc., priority 2003, published 2005).
Bridge positions count the residues as written; N and C are the ends. Ends that are not written are not given here.

How the values were obtained:
C5 = molecular target: T1, C5 (Homo sapiens, UniProt P01031); assay: Phage clone binding to biotinylated C5 (neutravidin capture, anti-M13 antibody detection); settings: phage clones, FIG. 1
T1 construct: purchased Advanced Research Technologies
T1 sequence (P01031 19-1676): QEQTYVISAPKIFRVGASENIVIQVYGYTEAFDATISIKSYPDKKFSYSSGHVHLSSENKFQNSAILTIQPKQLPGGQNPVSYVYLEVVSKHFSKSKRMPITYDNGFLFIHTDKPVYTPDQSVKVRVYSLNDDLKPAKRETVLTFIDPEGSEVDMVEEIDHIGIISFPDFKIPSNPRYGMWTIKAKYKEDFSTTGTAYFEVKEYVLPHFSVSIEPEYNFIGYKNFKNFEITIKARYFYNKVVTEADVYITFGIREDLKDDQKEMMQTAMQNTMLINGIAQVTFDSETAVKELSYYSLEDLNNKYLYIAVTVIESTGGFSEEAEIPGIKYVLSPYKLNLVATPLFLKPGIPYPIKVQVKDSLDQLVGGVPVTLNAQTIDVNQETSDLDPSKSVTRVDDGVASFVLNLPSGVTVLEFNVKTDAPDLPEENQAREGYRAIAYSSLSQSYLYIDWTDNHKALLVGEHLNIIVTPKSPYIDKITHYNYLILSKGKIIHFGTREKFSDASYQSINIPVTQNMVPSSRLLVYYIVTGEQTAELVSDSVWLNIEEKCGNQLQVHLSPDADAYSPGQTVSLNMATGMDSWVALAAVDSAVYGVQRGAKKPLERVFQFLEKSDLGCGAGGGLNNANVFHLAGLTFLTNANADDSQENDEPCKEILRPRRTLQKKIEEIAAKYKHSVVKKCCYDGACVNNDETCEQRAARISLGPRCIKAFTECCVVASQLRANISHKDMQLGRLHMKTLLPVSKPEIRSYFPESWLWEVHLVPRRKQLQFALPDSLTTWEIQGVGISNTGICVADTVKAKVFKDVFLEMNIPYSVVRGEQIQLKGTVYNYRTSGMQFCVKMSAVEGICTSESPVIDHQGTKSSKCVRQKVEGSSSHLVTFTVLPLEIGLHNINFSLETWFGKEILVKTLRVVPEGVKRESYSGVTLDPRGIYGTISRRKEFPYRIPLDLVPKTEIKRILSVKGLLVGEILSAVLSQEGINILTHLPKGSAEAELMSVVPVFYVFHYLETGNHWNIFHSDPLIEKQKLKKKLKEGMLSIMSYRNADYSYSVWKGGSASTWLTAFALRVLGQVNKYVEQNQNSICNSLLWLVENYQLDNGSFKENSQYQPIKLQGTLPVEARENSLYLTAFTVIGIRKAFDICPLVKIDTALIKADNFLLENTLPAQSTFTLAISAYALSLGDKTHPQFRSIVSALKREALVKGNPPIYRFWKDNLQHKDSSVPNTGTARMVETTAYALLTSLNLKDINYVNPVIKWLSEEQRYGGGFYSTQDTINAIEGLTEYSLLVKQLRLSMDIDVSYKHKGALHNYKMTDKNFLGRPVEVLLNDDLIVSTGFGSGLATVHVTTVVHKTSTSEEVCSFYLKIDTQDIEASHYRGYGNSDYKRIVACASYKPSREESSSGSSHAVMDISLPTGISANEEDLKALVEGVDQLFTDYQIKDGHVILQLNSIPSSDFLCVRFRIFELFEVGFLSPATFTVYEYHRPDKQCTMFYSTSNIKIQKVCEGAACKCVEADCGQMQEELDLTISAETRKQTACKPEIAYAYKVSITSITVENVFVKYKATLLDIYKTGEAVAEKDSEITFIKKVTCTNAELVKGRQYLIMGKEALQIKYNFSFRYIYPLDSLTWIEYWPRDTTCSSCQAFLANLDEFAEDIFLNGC
Experimental: FIG. 1 is a bar graph depicting the binding of peptide #1, peptide #2, and peptide #3 to C5. […] Wild-type M13 phage without a peptide fused to the pill protein was used as a negative control for this assay.
To confirm that Peptides 1, 2, and 3 (Sequence I. D. Nos:1, 2, and 3, respectively) bind C5, the phage clones were tested in a binding assay with increasing amounts of phage incubated with constant biotinylated C5, captured on a neutravidin plate and detected with an anti-phage antibody. Increasing concentrations of each phage clone were incubated for 2 hours with 200 ng of biotinylated C5 in PBS containing 0.5% BSA. The phage bound C5 complex was captured on a neutravidin coated microplate for 20 minutes at room temperature and then washed well. A peroxidase labeled anti-M13 antibody (Pharmacia) was used to detect the amount of phage bound to C5 with OPD substrate.

classical pathway = assay: Classical pathway hemolytic assay, antibody sensitized sheep erythrocytes in pooled human plasma; assay type: cell-based; settings: disulfide bond reduced and cysteines alkylated; data not shown
Experimental: FIGS. 2A and 2B are bar graphs depicting percent hemolysis above control versus peptide concentration with peptides 1, 2, and 3 for classical pathway activation (FIG. 2A), and alternative pathway activation (FIG. 2B). Percent hemolysis above control is the percent lysis of erythrocytes for each peptide concentration minus the lysis of erythrocytes in the absence of peptide.
Activation of the classical and alternative pathway by the peptides was measured using standard hemolysis assays. For the classical pathway various concentrations of peptide were incubated with 50 ul pooled human plasma (diluted 1:30 with GVB++), 5×10^7 antibody sensitized sheep erythrocyte cells, and GVB++buffer to a final volume of 200 ul. The reaction was incubated at 37° C. for one hour and centrifuged. The percentage of lysis was determined by measuring the optical density of the supernatant at 414 nm. […] Lysis of the erythrocytes was not observed when the peptides were incubated in the absences of a source of complement (plasma). The peptides altered the activity of the complement protein(s) and increased the level of activation of the complement cascade resulting in an increase in hemolysis. Furthermore, when the disulfide bond of peptide 2 was reduced and the cysteines alkylated, enhancement of erythrocyte lysis was reduced (data not shown).

[1] = system: E. coli strain 07:K1:NM (ATCC 23503); assay: Bactericidal assay, complement-mediated killing in pooled human plasma, colony count; assay type: cell-based; settings: 100 uM peptide, one hour 37° C.; plasma alone 71%
Experimental: FIG. 4 is a bar graph depicting bacteriocidal activity of peptides against E. coli O7:K1:NM. Controls were run with plasma alone, complement inactivated (heat inactivated) plasma, and PBS/0.5% BSA.
The ability of Peptides 1- 3 to enhance complement-mediated killing of bacteria was examined. A virulent strain of E. coli that was chosen for the assays. E. coli strain 07:K1:NM (ATCC 23503), a strain less susceptible to complement mediated killing than most strains of E. coli, were grown in LB media to an optical density (OD) at 600 nm between 0.3 to 0.4 at 37° C. The cells were washed and resuspended in PBS containing 0.5% BSA and the concentration of cells determined from the OD at 600 nm. The cells were diluted in PBS/0.5% BSA to a concentration of 2×10^5 cfu/mL and 100 ul of cells were added to 100 ul of pooled human plasma containing 100 uM of peptide. The sample was incubated for one hour at 37° C. 10 ul aliquots were removed before and after the incubation and bacterial survival was examined by the colony count method (counting cells on LB agar before and after incubation). Heat inactivated plasma (56° C., 30 min.), plasma with no peptide, and PBS/0.5% BSA were also incubated with the cells as controls.

| Sequence | relative affinity for C5 (rank order) (C5) | enhancement of erythrocyte lysis (classical pathway) | bacterial survival [1] [%] |
| --- | --- | --- | --- |
| CPSSPPHMC (YCPSSPPHMCGGG; disulfide 2-10 (inferred)) [Peptide 2, synthetic form has added N terminal tyrosine and three C terminal glycines] | followed by Peptide 2 | reduced | – |
| CPGKASPWC (YCPGKASPWCGGG; disulfide 2-10 (inferred)) [Peptide 3, synthetic form has added N terminal tyrosine and three C terminal glycines] | then Peptide 3 | – | – |
| CLSAHHHMC (YCLSAHHHMCGGG; disulfide 2-10 (inferred)) [Peptide 1, synthetic form has added N terminal tyrosine and three C terminal glycines] | tightest relative affinity | – | 23 |
